Source: paper PMC3257533

Molecular target: paclitaxel-stabilized microtubules
Experiment: co-sedimentation

B1: MBP-Nsk1 (recombinant maltose-binding protein-Nsk1, wild type) (natural protein)
chain: MAYKLSLSAVEPLLIFPAAPFSTKKEKSTFQNNLISSDVFSSALKPLSPLKSLVADFSTHSNPSKDNQLISPPKINHREFLNEEKESDTQTRYLKQLINICNSPSKNHETSLSPSKSTIDNNERKLDNEIDNYKHDVKYSPYKGQGKTSNPSQGTTKCPGIFEEDNFFSVSPKRRKNLFEKYGKTDLGKPARVPSPKKSLSSTIKSPPSRVKLPTSILSKSPPLKVPNKNRSSTFSPLRTPTSSSKTFVIVDHSTPSPPSIRTKLEAFAPNSTFATQKRLRRLATLESSPALRSTLKSLQSKSSPVKLLKLKEEKAKIKNQLFKSEEEKDPVGKQKLPLESSLSPLDHSSAEKEMQKAPAKNKRRRTGSLETGLYPKESPTPSKKRSKRVLWSLKHIVSPGNREKHSLNSTPESIMKKDTKWPQNLAKNNINSEPNTPTKSNIDTGKAHSARAHKTRKNIQS
- Kd: 230 nM
